Results as given in publication PMC8614764, “Sulfane Sulfur Is a Strong Inducer of the Multiple Antibiotic Resistance Regulator MarR in Escherichia coli” (Antioxidants, 2021).
Substitutions are numbered along the chain they refer to.

Key:
[1] = molecular target: T1, MarR-5XS C47S;C51S;C54S;C108S;C111S (Escherichia coli MG1655) (UniProt P27245); assay: EMSA; conditions: EMSA: 10 mM Tris, 50 mM KCl, 5% glycerin, pH 8.0, 25 C, 30 min, 20 nM probe, 15 uL; 6% native PAGE
T1 sequence: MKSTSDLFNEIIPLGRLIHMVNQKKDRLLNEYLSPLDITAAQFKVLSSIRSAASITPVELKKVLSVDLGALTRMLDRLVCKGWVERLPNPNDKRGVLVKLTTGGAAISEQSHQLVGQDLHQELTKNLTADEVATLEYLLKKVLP

[2] = molecular target: T2, MarR (Escherichia coli MG1655) (UniProt P27245); assay: EMSA; conditions: EMSA: 10 mM Tris, 50 mM KCl, 5% glycerin, pH 8.0, 25 C, 30 min, 20 nM probe, 15 uL; 6% native PAGE
T2 sequence: T1 sequence with S47C, S51C, S54C, S108C, S111C

P27245 = assay: SEC; Superdex-200, 10 mM Tris-HCl pH 8.0, 100 mM NaCl; MarR-5XS (25 µM) after 400 µM H2Sn for 20 min; dimers to tetramer; mass calibrated with BSA (67 kDa) and T7 RNA polymerase (99 kDa)
[3] = molecular target: the molecule itself; assay: SEC; Superdex-200, 10 mM Tris-HCl pH 8.0, 100 mM NaCl; untreated MarR-5XS, 25 µM; monomers to dimer
[4] = molecular target: the molecule itself; assay: SEC; Superdex-200, 10 mM Tris-HCl pH 8.0, 100 mM NaCl; MarR-5XS (25 µM) after 400 µM H2Sn for 20 min; dimers to tetramer; mass calibrated with BSA (67 kDa) and T7 RNA polymerase (99 kDa)
[5] = molecular target: the molecule itself; assay: cross-linking; LC-MS/MS of tryptic peptides of MarR reacted with 10-fold H2Sn, anaerobic, room temperature, 30 min; free thiols blocked with iodoacetamide; disulfide- and trisulfide-linked Cys80 peptides identified

Molecule: CATCGCATTGAACAAAACTTGAACCGATTTAGCAAAACGTGGCATCGGTCAATTCATTCATTTGACTTATACTTGCCTGGGCAATATTATCCCCTGCAAC (double strand) [marRAB promoter EMSA probe]
- binding [1]: binds
- binding [2]: binds

B1: H2Sn-treated MarR-5XS (protein)
chain: T1 sequence
- percent of protein as dimer (SEC peak area) (P27245): the dimer, tetramer, and multimer represented 37.4%, 54.1%, and 8.5%
- percent of protein as multimer (SEC peak area) (P27245): the dimer, tetramer, and multimer represented 37.4%, 54.1%, and 8.5%
- percent of protein as tetramer (SEC peak area) (P27245): the dimer, tetramer, and multimer represented 37.4%, 54.1%, and 8.5%

B2: MarR-5XS (untreated) (natural protein)
chain: T1 sequence
notes: Multiple antibiotic resistance regulator MarR of E. coli MG1655, gene b1530; primers run from the GTG start codon to the stop codon; all Cys except Cys80 changed to Ser; Made from pET30a; Primarily a dimer by SEC; also called MarR/5CS; MarR-5CS; source: E. coli BL21(DE3), purified (Ni-NTA, PD-10 desalting) under anaerobic conditions
- stoichiometry N [3]: 2

B3: H2Sn-treated MarR-5XS (natural protein)
chain: T1 sequence
modifications: Cys80 disulfide between chains after H2Sn treatment (disulfide-stabilized tetramer)
notes: Multiple antibiotic resistance regulator MarR of E. coli MG1655, gene b1530; primers run from the GTG start codon to the stop codon; all Cys except Cys80 changed to Ser; treated with polysulfide (H2Sn); The treated sample is a mixture of dimer, tetramer and possibly multimers by SEC; the tetramer is the main species; The disulfide and trisulfide at Cys80 were identified by LC-MS/MS on treated …
- stoichiometry N [4]: 4

B4: H2Sn-treated MarR (natural protein)
chain: T1 sequence with S47C, S51C, S54C, S108C, S111C
modifications: Cys80 linked to Cys80 of another chain by a disulfide (Cys80-Cys80) or trisulfide (Cys80-S-Cys80) bond
notes: Multiple antibiotic resistance regulator MarR of E. coli MG1655, gene b1530; primers run from the GTG start codon to the stop codon; treated with polysulfide (H2Sn); SEC was done only with MarR-5XS; The vector pET30a may add further residues between the His tag and MarR (surmised from the primer); also called pET30-MarR product; source: E. coli BL21, purified (Ni-NTA) in an anaerobic chamber, …
- binding result [5]: binds
